{
  "source": "patent US10729634B2",
  "about": "“Sex hormone-binding globulin for use as a medicament” (FUNDACIÓ HOSPITAL UNIVERSITARI VALL D'HEBRON—INSTITUT DE …, priority 2013, dated 2020)",
  "molecules": {"B1": {"name": "SHBG: native human protein purified from healthy human serums (included SEQ ID NO: 1); in mice and HepG2 expressed from human shbg transgene/vector (protein, listed as Homo sapiens)", "chain": "MESRGPLATSRLLLLLLLLLLRHTRQGWALRPVLPTQSAHDPPAVHLSNGPGQEPIAVMTFDLTKITKTSSSFEVRTWDPEGVIFYGDTNPKDDWFMLGLRDGRPEIQLHNHWAQLTVGAGPRLDDGRWHQVEVKMEGDSVLLEVDGEEVLRLRQVSGPLTSKRHPIMRIALGGLLFPASNLRLPLVPALDGCLRRDSWLDKQAEISASAPTSLRSCDVESNPGIFLPPGTQAEFNLRDIPQPHAEPWAFSLDLGLKQAAGSGHLLALGTPENPSWLSLHLQDQKVVLSSGSGPGLDLPLVLGLPLQLKLSMSRVVLSQGSKMKALALPPLGLAPLLNLWAKPQGRLFLGALPGEDSSTSFCLNGLWAQGQRLDVDQALNRSHEIWTHSCPQSPGNGTDASH"}},
  "key": {"[1]": {"system": "human mature adipocytes from obese subjects", "experiment": "Lipolysis assay (glycerol release) in human mature adipocytes", "format": "cell-based", "details": "SHBG 10 nM and 30 nM, 16h incubation, vs control buffer", "method": "A similar in vitro experiment as in Example 1 was performed but using human mature adipocytes from obese subjects instead of the HepG2 cells.\nThe cells were maintained in DMEM supplemented with 10% foetal bovine serum (FBS) and antibiotics, cultured to confluence, washed and incubated with Lipolysis Assay Buffer containing vehicle (control—C), Isoproterenol (positive control—ISO, 3 μM) or SHBG at different final cell culture concentrations (10 nM and 30 nM). SHBG was from native human protein purified from healthy human serums (it included the amino acid sequence SEQ ID NO: 1). After 16h incubation, media was collected and glycerol concentration was assessed using a Glycerol Detection Kit (Zenbio)."}, "[2]": {"system": "shbg-db/db transgenic mice", "experiment": "Obese diabetic db/db mice expressing human SHBG (shbg-db/db) compared with db/db", "format": "in vivo", "excerpt": "To shed light to this issue, the inventors developed a unique mouse model that expresses the human SHBG gene and develops obesity, by crossing the human SHBG transgenic mice with the db/db mice.\nThe human SHBG transgenic mice is the one disclosed by Jänne et al, “Human Sex-Hormone-Binding Globulin Gen Expression in Transgenic Mice”, Molecular Endocrinology—1998, Vol. No. 12 (1), pp: 123-136.\nBriefly, these mice were obtained by microinjecting into the pronuclei of a one-cell mouse embryos, a 4.3 kb portion of a human shbg that comprises the 8 exons of the SHBG plus 0.9 kb 5′ of the translation initiation codon in exon 1 and 0.5 kb 3′ from the polyadenylation sequence in exon 8. The one-cell embryos were obtained superovulating CBA×C57BL6 hybrid females with pregnant mare serum and hCG (Sigma Chemical Co. Mississauga, Canada) and mating them with CBA×C57BL6 males. Female CD-1 mice were used to produce pseudopregnant recipients by mating with vasectomized CD-1 males. Injected embryos were implanted into the pseudopregnant recipient mice using a standard protocol. This human transgenic mice over expresses the human shbg gene in vivo. According to Northern blot analysis, the human shbg transcripts are most abundant in liver and kidney. At the cellular level, the human shbg transgenes are expressed in clusters of hepatocytes located mainly within the periportal region of hepatic lobules and in the epithelial cells lining the proximal convoluted tubules of the kidney.\nThe db/db mice corresponds to the JAX™ Mice Strain: Diabetic Mice db/db (from Charles River; www.criver.com/en-US/Pages/home.aspx). These mice are characterized by having a point mutation in the leptin receptor. In homozygosis the lack of leptin signaling in the hypothalamus will lead to persistent hyperphagia, obesity, type 2 diabetes, dyslipidaemia and fatty liver. In this mice, diabetes (db), which occurred in an inbred strain of mouse, is inherited as a unit autosomal recessive and is characterized by a metabolic disturbance resembling diabetes mellitus in man. Abnormal deposition of fat at 3 to 4 weeks of age is followed shortly by hyperglycemia, polyuria, and glycosuria.\nFor performing the assays, mice were maintained under standard conditions with food (Global Diet 2018, Harlan Interfauna Iberica, Barcelona, Spain) and water provided ad libitum and a 12 h light/dark cycle. Experimental procedures were approved by the Institutional Animal Use Subcommittees of Hospital Vall d'Hebron Research Institute and the Universitat Autònoma Barcelona.\nThe mice for experiments in next illustrated assays were of the following four genotypes: • db/+, which means lean mice heterozygous at point mutation in the leptin receptor. • db/db, which means that the mice were homozygous for the point mutation in the leptin receptor and behave a phenotype of persistent hyperphagia, obesity, type 2 diabetes, dyslipidaemia and fatty liver, • shbg-db/+ lean mice heterozygous at point mutation in the leptin receptor and expressing the shbggene • shbg-db/db, which means that the they over-expressed shbg gene in the manner disclosed above and at the same time they had the phenotype of the homozygous db/db mice in relation to hyperphagia, obesity, type 2 diabetes, dyslipidaemia and fatty liver.\nHistology and Immunohistochemistry: For morphological studies, 3 animals of each genotype (db/+, db/db, shbg4-db/+ and shbg4-db/db) were used. Livers and adipose tissue were fixed in 4% paraformaldehyde for 24 h and embedded in paraffin. Serial 5-μm thick sections were used for histological examination and stained with hematoxylin-eosin (H&E).\nFor immunohistochemistry studies, the paraffin sections were de-waxed and incubated at high power in a microwave oven for 10 min in citrate buffer, pH 6.6. The sections were then cooled at room temperature for 20 min and treated with a 0.03% hydrogen peroxide solution for 7 min, prior to incubation (overnight at 4° C.) with rabbit antibodies against F4/80. […]"}, "[3]": {"details": "adipose tissue, shbg-db/db vs db/db mice"}, "[4]": {"details": "shbg-db/db vs db/db mice, 4 to 12 weeks of age"}, "[5]": {"details": "shbg-db/db vs db/db mice, relative to 18S mRNA"}, "[6]": {"details": "shbg-db/db vs db/db mice, sacrificed at 6 weeks"}, "[7]": {"details": "shbg-db/db vs db/db mice, western blot"}},
  "data": [
    {"molecule": "B1", "values": [
      {"measurement": "final glycerol concentration (lipolysis)", "setting": "[1]", "value": "greater than the observed in the non-treated mature adipocytes"},
      {"measurement": "Adiponectin mRNA levels", "setting": "[2]; [3]", "value": "increased significantly"},
      {"measurement": "IL6 mRNA levels", "setting": "[2]; [3]", "value": "reduced in shbg-db/db mice when compared with db/db mice but it was not statistically significant"},
      {"measurement": "IL-1β mRNA levels", "setting": "[2]; [3]", "value": "significantly reduced"},
      {"measurement": "TNF-α mRNA levels", "setting": "[2]; [3]", "value": "significantly reduced"},
      {"measurement": "Triglyceride amounts in liver", "setting": "[2]; genotype shbg-db/+ (lean mice expressing human SHBG), db/+ control 74.99 ± 4.17", "value": "88.88 ± 12.84", "unit": "Nmol TGs/tissue g"},
      {"measurement": "Triglyceride amounts in liver", "setting": "[2]; genotype shbg-db/db (obese mice expressing human SHBG), db/db control 421.92 ± 58.6", "value": "314.64 ± 41.37", "unit": "Nmol TGs/tissue g"},
      {"measurement": "macrophage infiltration (F4/80 immunohistochemistry)", "setting": "[2]; liver and adipose tissue, shbg-db/db vs db/db mice", "value": "less macrophage infiltration in both liver and adipose tissue"},
      {"measurement": "hepatic lipogenesis", "setting": "[2]; shbg-db/db vs db/db mice", "value": "Reducing Hepatic Lipogenesis"},
      {"measurement": "inflammation", "setting": "[2]; shbg-db/db vs db/db mice", "value": "Lowers Inflammation"},
      {"measurement": "blood glucose levels", "setting": "[2]; [4]", "value": "not Blood Glucose Levels"},
      {"measurement": "weight gain (body weight)", "setting": "[2]; [4]", "value": "Reduces Weight Gain"},
      {"measurement": "hepatic steatosis", "setting": "[2]; shbg-db/db vs db/db mice, liver histology", "value": "Reduces"},
      {"measurement": "liver ACC mRNA levels", "setting": "[2]; [5]", "value": "significantly lower"},
      {"measurement": "liver FAS mRNA levels", "setting": "[2]; [5]", "value": "significantly lower"},
      {"measurement": "adipocyte size", "setting": "[2]; [6]", "value": "Reduces"},
      {"measurement": "adipose tissue weight (VAT)", "setting": "[2]; [6]", "value": "Reduces Adipose Tissue Weight"},
      {"measurement": "liver weight", "setting": "[2]; [6]", "value": "Reduces Liver Weight"},
      {"measurement": "liver ACC protein levels", "setting": "[2]; [7]", "value": "reduced ACC protein levels"},
      {"measurement": "liver FAS protein levels", "setting": "[2]; [7]", "value": "significantly lower FAS protein levels"}
    ]}
  ]
}
